Measured values published in patent US20050079151A1, “Therapeutic agents for apoptosis-related diseases” (priority 1998, published 2005).

Tests used:
[1] = test system: hippocampal region CA1 neurocytes; test: Apoptosis-inhibitory effect in vivo, transient forebrain ischemia, administration before ischemic damage; parameters: species or system Mongolian gerbil; settings: for numbers of surviving nuclei contained in the CA1 region per unit length of CA1: mean±standard deviation, saline 18±25, Sham-op 265±38; for number of nuclei showing apoptosis positive reaction (TUNEL) against the total number of cells: saline 69.7±17.0, Sham-op 0.0±0.0; for numbers of neurocytes in CA1: 2 μg MK, saline 10±10, sham-op 263±31
From the text: (1) Six to 16 male Mongolian gerbils (6- to 8-week old, body weight: 60 to 80 g) for each group were housed in “HONEY MATIC M-3” (KIMURA MEDICAL INSTRUMENT LTD.), an anesthetic delivery device for Fluothane, and the container was filled with an appropriate amount of inhalation anesthetic “Fluothane” (halothane according to Japanese Phamacopeia). The anesthetized animals were fixed on an operating table equipped with an injection holder (NARISHINGE SCEITIFIC INSTRUMENT LAB.; TYPE SR-5N, No. 97024). After the head was subjected to midline incision, a hole for inserting a syringe of an appropriate size was made by a dental drill at a site 2 mm away from the bregma towards the left eyeball direction. Through this hole, 2 μl of 0.25 mg/ml, 0.5 mg/ml or 1 mg/ml MK solutions (0.5 μg, 1.0 μg, 2.0 μg ) (in physiological saline) were seperately injected into the ventricle with a microsyringe (HAMILTON MICROLITER #701). As control groups, a saline injected group and the sham operated (Sham-op) group were prepared. After injection into the ventricle, the mice were left for 4 min and the operated site was sutured. The chest was subjected to midline incision to expose both right and left common carotid arteries. The both arteries were ligated with two pieces of Sugita brain aneurysm clip (standard type; MIZUHO) to stop blood flow for 5 min, and the blood was circulated again. During ischemic loading, brain temperature and body temperature were maintained constant (37±0.2° C.). Each mouse was distinguished and housed in a nursery cage after coming out of anesthesia to breed, allowing the animals to freely intake water and food. After one week, the mice were fixed while perfusing with saline containing 0.2% heparin (Novo Heparin Injection 100; Japan Hoechet Marion Russell LTD) and 4% paraformaldehyde solution, and beheaded. The brain was excised using scissors, and immersed in 4% paraformaldehyde fixative for one day. The rear portion from 2 mm ahead of the bregma was divided into three using a double-edged razor (Feather). These sections were further fixed for 24 hours. Tissues containing dorsal hippocampus were dehydrated and penetrated, and embedded with paraffin.
A 5 μm section, from 0.5 to 1.0 mm from the tip of the hippocampus or from 1.4 to 1.9 mm behind the sagittal suture was prepared from this paraffin block and observed by the TUNEL method (In situ Apoptosis Detection Kit, TaKaRa). The results are shown in FIG. 8 (×25) and FIG. 9 (×100).
(2) By following the method described in (1), MK solution (0.063 μg, 0.125 μg, 0.25 μg, 0.5 μg, 1 fig, or 2 μg), was injected into the ventricle just before development of ischemic injury to examine protective effects of MK on delayed neuronal death. Seven days after the injury, the CA1 region were stained with hematoxylin-eosine. Micrographs in low magnification (×25) are shown in FIG. 10 (FIG. 10a: saline, FIG. 10b: Sham-op, FIG. 10c: MK 2 μg, FIG. 10d: MK 1 μg, FIG. 10e: MK 0.5 μg, FIG. 10f: MK 0.25 μg), and those in high magnification (×100) in FIG. 11 (FIG. 11a: saline, FIG. 11b: Sham-op, FIG. 11c: MK 2 μg, FIG. 11d: MK 1 vg, FIG. 11e: MK 0.5 vg, FIG. 11f: MK 0.25 μg).
For quantitative evaluation, the numbers of surviving nuclei contained in the CA1 region per unit length of CA1 were obtained (FIG. 12). The values were 18±25/mm(n=15, mean±standard deviation) for the saline administration group and 265±38 /mm (n=23) for the Sham-op group. For the 0.5, 1, or 2 μg MK administration groups, the values were 217±109 (n=7), 228±84 (n=8), and 243±82 (n=10), respectively. The values decreased when MK concentration was low (FIG. 12). There was a significant difference between the saline administrated group and MK administrated (0.5 to 2 μg MK) groups (ANOVA and post-hoc Fisher's PLSD teat, p<0.0001).
Whether the effect of MK administration (2 μg) continues was examined. […]

[2] = test system: G401 cell lines derived from Wilms tumor; test: Inhibitory effect on apoptosis induced by a carcinostatic (MTT method); assay type: cell-based; settings: MK 1, 10 or 100 ng/mL + cisplatin 100 μM, 12 hour culture, compared with the cisplatin treated group
Description: Apoptosis was induced in G401 cell lines derived from Wilms tumor, infantile renal cancer, by a carcinostatic to examine the apoptosis-inhibitory effect of MK by the MTT method.
Five groups were prepared; the untreated group, the cisplatin (100 μM) treated group, and the MK (1, 10 or 100 ng/mL)+cisplatin treated groups.
G401 cells were suspended in the Dulbecco Modified Eagle Medium containing 10% fetal bovine serum (FBS) (10% FBS/DMEM) and seeded into a 96-well plate at 5000 cells/well. The plate was incubated in a CO2 incubator (37° C., 5% CO2; the same shall apply hereinbelow) so that the cells could attach to the plate.
The cells were washed with DMEM containing 0.1% FBS (0.1% FBS/DMEM) twice (hereafter, 0.1% FBS/DMEM was used for washing unless otherwise indicated), and cultured in 0.1% FBS/DMEM overnight. After culturing, MK was added to the MK treated groups at 1, 10 or 100 ng/ml. Each group was cultured for 6 hours. Six μl of 0.5 mg/ml cisplatin (100 μM) (Bristol-Myers Squib Company; Tokyo) was added to the cisplatin treated groups. Each group was cultured in 0.1% FBS/DMEM for 2 hours. […]
Fifteen μl of MTT reagent (5 mg/ml) (Wako Pure Chemical Laboratories; Osaka) were added to each well of the above-mentioned five groups and cultured for 4 hours. […] Absorbance (OD540-655) in each well was measured using a microplate reader.

B1: MK: midkine, a heparin-binding growth and differentiation factor; human MK protein (SEQ ID NO: 3; or recombinant, secreted by yeast) (protein, UniProt P21741 21-143, looked up)
Midkine: VAKKKDKVKKGGPGSECAEWAWGPCTPSSKDCGVGFREGTCGAQTQRIRCRVPCNWKKEFGADCKYKFENWGACDGGTGTKVRQGTLKKARYNAQCQETIRVTKPCTPKTKAKAKAKKGKGKD
[1]; 0.25 μg MK into the ventricle just before ischemic injury, seven days after
  nuclei in CA1 region, hematoxylin-eosine, high magnification: Deteriorated nuclei were observed
[1]; 0.5 μg MK just before ischemia, seven days after
  numbers of surviving nuclei contained in the CA1 region per unit length of CA1: 217±109 /mm
[1]; 0.5 μg MK just before ligation, seven days after
  number of nuclei showing apoptosis positive reaction (TUNEL) against the total number of cells: 7.8±19.8
[1]; 1 μg MK just before ischemia, seven days after
  numbers of surviving nuclei contained in the CA1 region per unit length of CA1: 228±84 /mm
[1]; 1 μg MK just before ligation, seven days after
  number of nuclei showing apoptosis positive reaction (TUNEL) against the total number of cells: 11.0±14.7
[1]; 2 μg MK just before ischemia, seven days after
  numbers of surviving nuclei contained in the CA1 region per unit length of CA1: 243±82 /mm
[1]; 2 μg MK just before ligation, seven days after
  number of nuclei showing apoptosis positive reaction (TUNEL) against the total number of cells: 4.6±12.2
[1]; four weeks after ischemia
  numbers of neurocytes in CA1: 157±60 cells/mm
[1]; one week after ischemia
  numbers of neurocytes in CA1: 219±74 cells/mm
[1]; three weeks after ischemia
  numbers of neurocytes in CA1: 185±83 cells/mm
[1]; two weeks after ischemia
  numbers of neurocytes in CA1: 152±72 cells/mm
[1]; 0.5 to 2 μg MK into the ventricle just before ischemic injury, seven days after
  nuclei in CA1 region, hematoxylin-eosine, high magnification: survived circle nuclei were observed
[1]; 0.5 to 2 μg MK just before ligation, seven days after
  TUNEL stained nuclei in hippocampal region CA1: Few stained nuclei were observed
[1]; 28 days after the injury
  activity against delayed neuronal death: showed a significant activity
[1]; MK injected into the ventricle before 5 min ischemia, one week after
  cells containing TUNEL reaction positive nuclei and atrophied neurocytes in hippocampal region CA1: such neurocytes were not observed
[2]
  numbers of the surviving cells (MTT, absorbance OD540-655): increased numbers of the surviving cells in an MK concentration-dependent manner
